Results taken from article PMC9536601.

What was measured:
[1] = biological target: chimeric hexon of Ad5:H6.3 (Ad5 vector, hexon residues 112-593 from Ad6 hexon, HVR7 IGNTETF), on the virion (human adenovirus type 5 | human adenovirus type 6) (UniProt P04133); test: SPR; Biacore T200; about 300 to 5,000 RU of Ad virions immobilised on a CM5 chip, coagulation factors flowed over at four concentrations, 50 uL/min; 10 mM HEPES, 150 mM NaCl, 1 mM CaCl2, 0.5 mM MgCl2, 0.1% BSA, 0.05% polysorbate 20, pH 7.4; global fit to a 1:1 kinetic interaction model, double referencing
[2] = biological target: chimeric hexon of Ad5:H1.6 (Ad5 vector, hexon residues 112-593 from Ad1 hexon, HVR7 IGVTDRY), on the virion (human adenovirus type 5 | human adenovirus type 1) (UniProt P04133); test: as above

Row | Substance | Kd [1] | Kd [2]
1 | mouse prothrombin (coagulation factor II) (from UniProt P19221 44-618) (natural protein) | 1600 nM | 
2 | mouse coagulation factor X (from UniProt O88947 41-481) (natural protein) | 1200 nM | 4200 nM
